From patent US20250171562A1

B1: NIgG4D2A1(RS) (Fc fusion)
chain 1: DVQLQESGGGLVEAGGSLRLSCVASGRTFSGWSMGWFRQAPGKEREFVAAISWVGSWIGGTVYSNSVKGRFTISRDNARTTVYLQMNSLKPEDTAVYFCAAANSETPRIFASEYDYWGQGTQVTVSRSGPPCPPCPAPEFLGGPSVFLFPPKPKDTLMISRTPEVTCVVVDVSQEDPEVQFNWYVDGVEVHNAKTKPREEQFNSTYRVVSVLTVLHQDWLNGKEYKCKVSNKGLPSSIEKTISKAKGQPREPQVYTLPPCQEEMTKNQVSLWCLVKGFYPSDIAVEWESNGQPENNYKTTPPVLDSDGSFFLYSRLTVDKSRWQEGNVFSCSVMHEALHNHYTQKSLSLSLGK
chain 2: EVQLLESGGGLVQPGGSLRLSCAASGFTFGNYDMAWVRQAPGKRPEWVSSIDTGGDITHYADSVKGRFTISRDNAKNTLYLQMNSLRPEDTAVYWCATDEEYALGPNEFDYYGQGTLVTVSSRSGPPCPPCPAPEFLGGPSVFLFPPKPKDTLMISRTPEVTCVVVDVSQEDPEVQFNWYVDGVEVHNAKTKPREEQFNSTYRVVSVLTVLHQDWLNGKEYKCKVSNKGLPSSIEKTISKAKGQPREPQVCTLPPSQEEMTKNQVSLSCAVKGFYPSDIAVEWESNGQPENNYKTTPPVLDSDGSFFLVSRLTVDKSRWQEGNVFSCSVMHEALHNHYTQKSLSLSLGK
B2: NIgG4D2A1(G4S)1 (Fc fusion)
chain 1: DVQLQESGGGLVEAGGSLRLSCVASGRTFSGWSMGWFRQAPGKEREFVAAISWVGSWIGGTVYSNSVKGRFTISRDNARTTVYLQMNSLKPEDTAVYFCAAANSETPRIFASEYDYWGQGTQVTVSGGGGSGPPCPPCPAPEFLGGPSVFLFPPKPKDTLMISRTPEVTCVVVDVSQEDPEVQFNWYVDGVEVHNAKTKPREEQFNSTYRVVSVLTVLHQDWLNGKEYKCKVSNKGLPSSIEKTISKAKGQPREPQVYTLPPCQEEMTKNQVSLWCLVKGFYPSDIAVEWESNGQPENNYKTTPPVLDSDGSFFLYSRLTVDKSRWQEGNVFSCSVMHEALHNHYTQKSLSLSLGK
chain 2: EVQLLESGGGLVQPGGSLRLSCAASGFTFGNYDMAWVRQAPGKRPEWVSSIDTGGDITHYADSVKGRFTISRDNAKNTLYLQMNSLRPEDTAVYWCATDEEYALGPNEFDYYGQGTLVTVSSGGGGSGPPCPPCPAPEFLGGPSVFLFPPKPKDTLMISRTPEVTCVVVDVSQEDPEVQFNWYVDGVEVHNAKTKPREEQFNSTYRVVSVLTVLHQDWLNGKEYKCKVSNKGLPSSIEKTISKAKGQPREPQVCTLPPSQEEMTKNQVSLSCAVKGFYPSDIAVEWESNGQPENNYKTTPPVLDSDGSFFLVSRLTVDKSRWQEGNVFSCSVMHEALHNHYTQKSLSLSLGK
B3: NIgG4D2A1(G4S)2 (Fc fusion)
chain 1: DVQLQESGGGLVEAGGSLRLSCVASGRTFSGWSMGWFRQAPGKEREFVAAISWVGSWIGGTVYSNSVKGRFTISRDNARTTVYLQMNSLKPEDTAVYFCAAANSETPRIFASEYDYWGQGTQVTVSGGGGSGGGGSGPPCPPCPAPEFLGGPSVFLFPPKPKDTLMISRTPEVTCVVVDVSQEDPEVQFNWYVDGVEVHNAKTKPREEQFNSTYRVVSVLTVLHQDWLNGKEYKCKVSNKGLPSSIEKTISKAKGQPREPQVYTLPPCQEEMTKNQVSLWCLVKGFYPSDIAVEWESNGQPENNYKTTPPVLDSDGSFFLYSRLTVDKSRWQEGNVFSCSVMHEALHNHYTQKSLSLSLGK
chain 2: EVQLLESGGGLVQPGGSLRLSCAASGFTFGNYDMAWVRQAPGKRPEWVSSIDTGGDITHYADSVKGRFTISRDNAKNTLYLQMNSLRPEDTAVYWCATDEEYALGPNEFDYYGQGTLVTVSSGGGGSGGGGSGPPCPPCPAPEFLGGPSVFLFPPKPKDTLMISRTPEVTCVVVDVSQEDPEVQFNWYVDGVEVHNAKTKPREEQFNSTYRVVSVLTVLHQDWLNGKEYKCKVSNKGLPSSIEKTISKAKGQPREPQVCTLPPSQEEMTKNQVSLSCAVKGFYPSDIAVEWESNGQPENNYKTTPPVLDSDGSFFLVSRLTVDKSRWQEGNVFSCSVMHEALHNHYTQKSLSLSLGK
B4: CIgG4D1A1(G4S)3 (Fc fusion)
chain 1: GPPCPPCPAPEFLGGPSVFLFPPKPKDTLMISRTPEVTCVVVDVSQEDPEVQFNWYVDGVEVHNAKTKPREEQFNSTYRVVSVLTVLHQDWLNGKEYKCKVSNKGLPSSIEKTISKAKGQPREPQVYTLPPCQEEMTKNQVSLWCLVKGFYPSDIAVEWESNGQPENNYKTTPPVLDSDGSFFLYSRLTVDKSRWQEGNVFSCSVMHEALHNHYTQKSLSLSLGKGGGGSGGGGSGGGGSDVQLQESGGGLVQAGGSLRLSCAASGLTFSRCDMGWFRQAPGKEREFVARISANGASTHYADFVKGRFTISRDNAKNTVYLQMNYLKPEDTAVYICAAARVPVTWQLYDYWGQGTQVTVS
chain 2: GPPCPPCPAPEFLGGPSVFLFPPKPKDTLMISRTPEVTCVVVDVSQEDPEVQFNWYVDGVEVHNAKTKPREEQFNSTYRVVSVLTVLHQDWLNGKEYKCKVSNKGLPSSIEKTISKAKGQPREPQVCTLPPSQEEMTKNQVSLSCAVKGFYPSDIAVEWESNGQPENNYKTTPPVLDSDGSFFLVSRLTVDKSRWQEGNVFSCSVMHEALHNHYTQKSLSLSLGKGGGGSGGGGSGGGGSEVQLLESGGGLVQPGGSLRLSCAASGFTFGNYDMAWVRQAPGKRPEWVSSIDTGGDITHYADSVKGRFTISRDNAKNTLYLQMNSLRPEDTAVYWCATDEEYALGPNEFDYYGQGTLVTVSS
B5: CIgG4D2A1(RS) (Fc fusion)
chain 1: GPPCPPCPAPEFLGGPSVFLFPPKPKDTLMISRTPEVTCVVVDVSQEDPEVQFNWYVDGVEVHNAKTKPREEQFNSTYRVVSVLTVLHQDWLNGKEYKCKVSNKGLPSSIEKTISKAKGQPREPQVYTLPPCQEEMTKNQVSLWCLVKGFYPSDIAVEWESNGQPENNYKTTPPVLDSDGSFFLYSRLTVDKSRWQEGNVFSCSVMHEALHNHYTQKSLSLSLGKRSDVQLQESGGGLVEAGGSLRLSCVASGRTFSGWSMGWFRQAPGKEREFVAAISWVGSWIGGTVYSNSVKGRFTISRDNARTTVYLQMNSLKPEDTAVYFCAAANSETPRIFASEYDYWGQGTQVTVS
chain 2: GPPCPPCPAPEFLGGPSVFLFPPKPKDTLMISRTPEVTCVVVDVSQEDPEVQFNWYVDGVEVHNAKTKPREEQFNSTYRVVSVLTVLHQDWLNGKEYKCKVSNKGLPSSIEKTISKAKGQPREPQVCTLPPSQEEMTKNQVSLSCAVKGFYPSDIAVEWESNGQPENNYKTTPPVLDSDGSFFLVSRLTVDKSRWQEGNVFSCSVMHEALHNHYTQKSLSLSLGKRSEVQLLESGGGLVQPGGSLRLSCAASGFTFGNYDMAWVRQAPGKRPEWVSSIDTGGDITHYADSVKGRFTISRDNAKNTLYLQMNSLRPEDTAVYWCATDEEYALGPNEFDYYGQGTLVTVSS
B6: CIgG4D1A1(G4S)2 (Fc fusion)
chain 1: GPPCPPCPAPEFLGGPSVFLFPPKPKDTLMISRTPEVTCVVVDVSQEDPEVQFNWYVDGVEVHNAKTKPREEQFNSTYRVVSVLTVLHQDWLNGKEYKCKVSNKGLPSSIEKTISKAKGQPREPQVYTLPPCQEEMTKNQVSLWCLVKGFYPSDIAVEWESNGQPENNYKTTPPVLDSDGSFFLYSRLTVDKSRWQEGNVFSCSVMHEALHNHYTQKSLSLSLGKGGGGSGGGGSDVQLQESGGGLVQAGGSLRLSCAASGLTFSRCDMGWFRQAPGKEREFVARISANGASTHYADFVKGRFTISRDNAKNTVYLQMNYLKPEDTAVYICAAARVPVTWQLYDYWGQGTQVTVS
chain 2: GPPCPPCPAPEFLGGPSVFLFPPKPKDTLMISRTPEVTCVVVDVSQEDPEVQFNWYVDGVEVHNAKTKPREEQFNSTYRVVSVLTVLHQDWLNGKEYKCKVSNKGLPSSIEKTISKAKGQPREPQVCTLPPSQEEMTKNQVSLSCAVKGFYPSDIAVEWESNGQPENNYKTTPPVLDSDGSFFLVSRLTVDKSRWQEGNVFSCSVMHEALHNHYTQKSLSLSLGKGGGGSGGGGSEVQLLESGGGLVQPGGSLRLSCAASGFTFGNYDMAWVRQAPGKRPEWVSSIDTGGDITHYADSVKGRFTISRDNAKNTLYLQMNSLRPEDTAVYWCATDEEYALGPNEFDYYGQGTLVTVSS
B7: CIgG4D1A1(G4S)1 (Fc fusion)
chain 1: GPPCPPCPAPEFLGGPSVFLFPPKPKDTLMISRTPEVTCVVVDVSQEDPEVQFNWYVDGVEVHNAKTKPREEQFNSTYRVVSVLTVLHQDWLNGKEYKCKVSNKGLPSSIEKTISKAKGQPREPQVYTLPPCQEEMTKNQVSLWCLVKGFYPSDIAVEWESNGQPENNYKTTPPVLDSDGSFFLYSRLTVDKSRWQEGNVFSCSVMHEALHNHYTQKSLSLSLGKGGGGSDVQLQESGGGLVQAGGSLRLSCAASGLTFSRCDMGWFRQAPGKEREFVARISANGASTHYADFVKGRFTISRDNAKNTVYLQMNYLKPEDTAVYICAAARVPVTWQLYDYWGQGTQVTVS
chain 2: GPPCPPCPAPEFLGGPSVFLFPPKPKDTLMISRTPEVTCVVVDVSQEDPEVQFNWYVDGVEVHNAKTKPREEQFNSTYRVVSVLTVLHQDWLNGKEYKCKVSNKGLPSSIEKTISKAKGQPREPQVCTLPPSQEEMTKNQVSLSCAVKGFYPSDIAVEWESNGQPENNYKTTPPVLDSDGSFFLVSRLTVDKSRWQEGNVFSCSVMHEALHNHYTQKSLSLSLGKGGGGSEVQLLESGGGLVQPGGSLRLSCAASGFTFGNYDMAWVRQAPGKRPEWVSSIDTGGDITHYADSVKGRFTISRDNAKNTLYLQMNSLRPEDTAVYWCATDEEYALGPNEFDYYGQGTLVTVSS
B8: NIgG4D2A1(G4S)3 (Fc fusion)
chain 1: DVQLQESGGGLVEAGGSLRLSCVASGRTFSGWSMGWFRQAPGKEREFVAAISWVGSWIGGTVYSNSVKGRFTISRDNARTTVYLQMNSLKPEDTAVYFCAAANSETPRIFASEYDYWGQGTQVTVSGGGGSGGGGSGGGGSGPPCPPCPAPEFLGGPSVFLFPPKPKDTLMISRTPEVTCVVVDVSQEDPEVQFNWYVDGVEVHNAKTKPREEQFNSTYRVVSVLTVLHQDWLNGKEYKCKVSNKGLPSSIEKTISKAKGQPREPQVYTLPPCQEEMTKNQVSLWCLVKGFYPSDIAVEWESNGQPENNYKTTPPVLDSDGSFFLYSRLTVDKSRWQEGNVFSCSVMHEALHNHYTQKSLSLSLGK
chain 2: EVQLLESGGGLVQPGGSLRLSCAASGFTFGNYDMAWVRQAPGKRPEWVSSIDTGGDITHYADSVKGRFTISRDNAKNTLYLQMNSLRPEDTAVYWCATDEEYALGPNEFDYYGQGTLVTVSSGGGGSGGGGSGGGGSGPPCPPCPAPEFLGGPSVFLFPPKPKDTLMISRTPEVTCVVVDVSQEDPEVQFNWYVDGVEVHNAKTKPREEQFNSTYRVVSVLTVLHQDWLNGKEYKCKVSNKGLPSSIEKTISKAKGQPREPQVCTLPPSQEEMTKNQVSLSCAVKGFYPSDIAVEWESNGQPENNYKTTPPVLDSDGSFFLVSRLTVDKSRWQEGNVFSCSVMHEALHNHYTQKSLSLSLGK

Target: mixture of three Der p 2 specific recombinant human IgE clones H10, H12, P4E (human) (UniProt P01854)
Sequence (P01854 other isoform, or with tags, fused parts or gaps): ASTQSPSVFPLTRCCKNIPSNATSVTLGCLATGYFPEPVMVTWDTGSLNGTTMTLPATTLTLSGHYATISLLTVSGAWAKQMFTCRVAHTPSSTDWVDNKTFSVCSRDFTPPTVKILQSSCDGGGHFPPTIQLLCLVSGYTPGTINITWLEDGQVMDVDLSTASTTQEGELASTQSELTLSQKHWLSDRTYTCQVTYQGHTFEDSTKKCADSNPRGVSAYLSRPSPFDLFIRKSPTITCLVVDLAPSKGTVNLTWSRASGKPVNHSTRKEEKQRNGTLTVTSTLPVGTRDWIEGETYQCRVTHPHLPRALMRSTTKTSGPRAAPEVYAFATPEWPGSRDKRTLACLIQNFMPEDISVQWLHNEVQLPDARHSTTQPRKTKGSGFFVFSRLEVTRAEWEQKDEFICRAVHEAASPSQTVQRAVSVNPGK
Experiment: RBL-SX38 IgE displacement, FACS

Binder	EC50 [nM]	Max effect/effect 1 µM [%]
B1	12.3	97
B2	8.7	97
B3	6.3	96
B4	64.6	96
B5	–	6
B6	87.2	96
B7	65.8	96
B8	3.7	88
